# Results: patent US20260274983A1 (MODERNATX, published 2026)
# T1: human FcRH5 (human, UniProt Q96RD9 16-977)
# T1 construct: whole, on cells; also called huFcRH5; RPMI8226-huFcRH5
# T1 sequence (looked up): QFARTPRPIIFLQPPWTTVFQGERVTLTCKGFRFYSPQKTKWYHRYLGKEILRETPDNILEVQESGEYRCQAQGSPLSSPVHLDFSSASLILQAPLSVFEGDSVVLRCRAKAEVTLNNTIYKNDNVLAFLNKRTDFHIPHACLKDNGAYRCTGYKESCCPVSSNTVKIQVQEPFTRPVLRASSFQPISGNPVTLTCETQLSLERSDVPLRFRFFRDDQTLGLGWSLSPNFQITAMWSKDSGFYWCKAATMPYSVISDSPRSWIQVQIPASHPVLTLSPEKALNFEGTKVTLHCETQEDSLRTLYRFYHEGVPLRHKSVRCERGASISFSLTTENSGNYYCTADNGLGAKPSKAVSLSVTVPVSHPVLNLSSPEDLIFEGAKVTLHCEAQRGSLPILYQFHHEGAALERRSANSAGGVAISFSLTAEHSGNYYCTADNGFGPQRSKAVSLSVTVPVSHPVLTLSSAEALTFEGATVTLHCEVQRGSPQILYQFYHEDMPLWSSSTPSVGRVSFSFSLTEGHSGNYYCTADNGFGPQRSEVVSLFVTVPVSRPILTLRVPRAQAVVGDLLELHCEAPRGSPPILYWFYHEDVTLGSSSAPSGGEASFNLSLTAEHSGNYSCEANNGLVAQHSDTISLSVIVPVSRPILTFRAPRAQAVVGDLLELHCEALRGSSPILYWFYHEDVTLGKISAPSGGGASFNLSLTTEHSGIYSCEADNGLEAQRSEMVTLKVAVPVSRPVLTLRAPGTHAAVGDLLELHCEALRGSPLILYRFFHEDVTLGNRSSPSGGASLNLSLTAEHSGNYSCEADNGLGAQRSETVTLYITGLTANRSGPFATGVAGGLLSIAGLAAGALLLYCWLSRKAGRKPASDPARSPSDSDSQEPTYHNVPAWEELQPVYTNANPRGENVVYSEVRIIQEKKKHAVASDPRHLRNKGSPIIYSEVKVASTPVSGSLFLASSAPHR
# Assays:
# human FcRH5 [1] = target: T1, human FcRH5; experiment: FACS binding to RPMI-huFCRH5 (HuFcRH5-RPMI8226) cells, VHH-His format
# [2] = target: cynomolgus FcRH5 (cynomolgus); experiment: FACS on RPMI8226-cyFcRH5 cells, VHH-His
# human FcRH5 [3] = target: T1, human FcRH5; experiment: FACS on RPMI8226-huFcRH5 cells, VHH-His
Binder,binding result (human FcRH5 [1]),EC50 [2] [nM],EC50 (human FcRH5 [3]) [nM]
FcRH5-VHH3 (VHH) VHH: QVQLVESGGGSVQAGGSLRLSCVDSGHTLSTYAMGWFRQAPGKEREFVAAIARDGGATYLSGSAQGRATISRDNAKSTVYLQMNNLKPDDTAVYYCAASSMFSTAKRDYSYWGQGTQVTVSSHHHHHH,no binding (tested: 1000 nM),97.2,
FcRH5-VHH1 (VHH) VHH: QVQFVESGGGLVQAGGSLRLSCAASGITVSRNDMGWYRQAPGKQRELVAIMNRVGSTDTADSVKDRFTISRDNTKNTLYLQMNNLKPEDTAVYYCNALNTVITWPWGQGTQVTVSSHHHHHH,,,7.2
